Earlier results as cited in patent publication US12077586B2, “Bispecific antibodies for use in the treatment of hematological malignancies” (LAVA THERAPEUTICS N.V., priority 2018, dated 2024).

Assays:
[1] = target: T1, complete Vγ9Vδ2 TCR (Homo sapiens, UniProt A0JD36+Q99603, T7A); details: Mean Fluorescence Index class; cited from earlier work
T1 construct: host or cells: γδ T-cells expressing the complete Vγ9Vδ2 TCR

[2] = target: T2, Vδ2 chain (Homo sapiens, UniProt A0JD36); details: Mean Fluorescence Index class; γδ T-cells expressing Vδ2 chain paired with non Vγ9 chain; cited from earlier work
T2 construct: host or cells: γδ T-cells expressing a Vδ2 chain paired with a non-Vγ9 chain
T2 sequence (A0JD36 with tags, fused parts or gaps): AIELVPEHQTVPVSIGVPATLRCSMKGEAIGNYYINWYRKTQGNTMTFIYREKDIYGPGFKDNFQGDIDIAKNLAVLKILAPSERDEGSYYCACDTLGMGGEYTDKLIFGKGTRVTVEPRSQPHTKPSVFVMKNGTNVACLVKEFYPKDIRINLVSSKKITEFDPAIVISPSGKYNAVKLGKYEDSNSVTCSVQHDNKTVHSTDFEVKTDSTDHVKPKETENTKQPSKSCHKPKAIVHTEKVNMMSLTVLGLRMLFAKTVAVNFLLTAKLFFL
T2 sequence (P07766 23-207 partner): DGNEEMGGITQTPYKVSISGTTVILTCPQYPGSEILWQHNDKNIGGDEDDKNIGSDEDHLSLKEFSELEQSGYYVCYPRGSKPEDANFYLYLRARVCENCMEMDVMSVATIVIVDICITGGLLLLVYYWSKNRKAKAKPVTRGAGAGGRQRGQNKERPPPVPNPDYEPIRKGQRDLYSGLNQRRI
T2 sequence (P09693 23-182 partner): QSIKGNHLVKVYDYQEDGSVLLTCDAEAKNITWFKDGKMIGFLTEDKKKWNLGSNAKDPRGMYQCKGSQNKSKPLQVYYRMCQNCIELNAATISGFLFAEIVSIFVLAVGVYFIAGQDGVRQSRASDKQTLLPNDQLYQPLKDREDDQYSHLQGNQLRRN
T2 sequence (P04234 22-171 partner): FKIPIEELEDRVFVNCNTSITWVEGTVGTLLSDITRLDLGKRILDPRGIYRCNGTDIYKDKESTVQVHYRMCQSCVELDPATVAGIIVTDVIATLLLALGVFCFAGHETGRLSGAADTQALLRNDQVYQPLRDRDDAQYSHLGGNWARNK
T2 sequence (P20963 22-164 partner): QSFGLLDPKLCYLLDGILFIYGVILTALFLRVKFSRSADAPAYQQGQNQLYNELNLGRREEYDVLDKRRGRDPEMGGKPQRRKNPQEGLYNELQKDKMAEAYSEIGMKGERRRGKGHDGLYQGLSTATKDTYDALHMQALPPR

[3] = system: γδ T-cells not expressing any of the Vγ9Vδ2 TCR chains; details: Mean Fluorescence Index class; cells not expressing any Vγ9Vδ2 TCR chain; cited from earlier work
[4] = target: T3, Vγ9 chain (Homo sapiens, UniProt Q99603, T7A); details: Mean Fluorescence Index class; γδ T-cells expressing Vγ9 chain paired with non Vδ2 chain; cited from earlier work
T3 construct: host or cells: γδ T-cells expressing a Vγ9 chain paired with a non-Vδ2 chain
T3 sequence (Q99603 with tags, fused parts or gaps T7A limits assumed): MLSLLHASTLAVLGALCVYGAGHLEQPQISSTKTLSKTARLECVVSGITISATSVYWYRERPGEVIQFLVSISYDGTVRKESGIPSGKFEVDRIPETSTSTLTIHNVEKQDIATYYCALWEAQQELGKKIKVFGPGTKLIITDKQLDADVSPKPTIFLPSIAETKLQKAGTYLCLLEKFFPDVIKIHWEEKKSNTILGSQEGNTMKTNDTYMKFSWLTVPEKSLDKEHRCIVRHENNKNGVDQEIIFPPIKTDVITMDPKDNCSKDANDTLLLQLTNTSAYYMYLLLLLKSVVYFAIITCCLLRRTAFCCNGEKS
T3 sequence (P07766 23-207 partner): as the sequence (P07766 23-207 partner) above
T3 sequence (P09693 23-182 partner): as the sequence (P09693 23-182 partner) above
T3 sequence (P04234 22-171 partner): as the sequence (P04234 22-171 partner) above
T3 sequence (P20963 22-164 partner): as the sequence (P20963 22-164 partner) above

T1 sequence (Q99603 with tags, fused parts or gaps T7A limits assumed): as the sequence (Q99603 with tags, fused parts or gaps T7A limits assumed) above
T1 sequence (A0JD36 with tags, fused parts or gaps, stated change not applied): as the sequence (A0JD36 with tags, fused parts or gaps) above
T1 sequence (P07766 23-207 partner): as the sequence (P07766 23-207 partner) above
T1 sequence (P09693 23-182 partner): as the sequence (P09693 23-182 partner) above
T1 sequence (P04234 22-171 partner): as the sequence (P04234 22-171 partner) above
T1 sequence (P20963 22-164 partner): as the sequence (P20963 22-164 partner) above

| Molecule | Binding, Vγ9Vδ2+ [1] | Binding, Vδ2+ [2] | Binding, Vγ9Vδ2− [3] | Binding, Vγ9+ [4] |
| --- | --- | --- | --- | --- |
| 5F5: Vγ9Vδ2-TCR binding VHH, SEQ ID NO: 150 (protein, antibody sequence) VHH: EVQLVESGGGLVQAGGSLRLSCAASGRTFSNYAMGWFRQAPGKEREFVAAISWSGGSTYYADSVKGRFTISRDNAKNTVYLQMNSLKPEDTAVYYCAAMFSGSESQLVVVITNLYEYDYWGQGTQVTVSS | ++ (“++” indicates an MFI above 20) | ++ (“++” indicates an MFI above 20) | − (“−” indicates a Mean Fluorescence Index (MFI) below 1.5) | − (“−” indicates a Mean Fluorescence Index (MFI) below 1.5) |
| 6E4: Vγ9Vδ2-TCR binding VHH, SEQ ID NO: 152 (protein, antibody sequence) VHH: EVQLVESGGGLVQAGGSLRLSCAASGFTFDDYCIAWFRQAPGKEREPVSCITTSDGSTYYADSVKGRFTISSDNAKNTVYLQMNRLKPEDTAVYYCAAYFGYGCYGGAQDYRAMDYWGKGTLVTVSS | ++ (“++” indicates an MFI above 20) | ++ (“++” indicates an MFI above 20) | − (“−” indicates a Mean Fluorescence Index (MFI) below 1.5) | − (“−” indicates a Mean Fluorescence Index (MFI) below 1.5) |
| 6A1: Vγ9Vδ2-TCR binding VHH, SEQ ID NO: 151 (protein, antibody sequence) VHH: EVQLVESGGGLVQAGGSLRLSCAASGRTFSNYAMGWFRQAPGKEREFVATISWSGGSTYYADSVKGRFTISRDNAKNTVYLQMNSLKPEDTAVYYCAAAFSGSDYANTKKEVEYDYWGQGTQVTVSS | ++ (“++” indicates an MFI above 20) | ++ (“++” indicates an MFI above 20) | − (“−” indicates a Mean Fluorescence Index (MFI) below 1.5) | − (“−” indicates a Mean Fluorescence Index (MFI) below 1.5) |
| 5C1: Vγ9Vδ2-TCR binding VHH, SEQ ID NO: 142 (protein, antibody sequence) VHH: EVQLVESGGGLVQPGGSLRLSCAASGSIFSNYAMAWFRQAPEKERDFLAAVSWSGGRTYYADSVKGRFTISRDNAKNTVNLQMNSLKPEDTAVYYCAASLSCSGPGCSLEEYDYWGQGTQVTVSS | ++ (“++” indicates an MFI above 20) | +/− (“+/−” indicates an MFI of between 1.5 and 4.5) | − (“−” indicates a Mean Fluorescence Index (MFI) below 1.5) | ++ (“++” indicates an MFI above 20) |
| 6E3: Vγ9Vδ2-TCR binding VHH, SEQ ID NO: 144 (protein, antibody sequence) VHH: EVQLVESGGGLVQAGGSLRLSCAASGRPFSNYGMGWFRQAPGKKREFVAGISWSGGSTDYADSVKGRLTISRDNAKNTVYLQMNSLKPEDTAVYYCAAVFSGAETAYYPSDDYDYWGQGTQVTVSS | ++ (“++” indicates an MFI above 20) | ++ (“++” indicates an MFI above 20) | − (“−” indicates a Mean Fluorescence Index (MFI) below 1.5) | − (“−” indicates a Mean Fluorescence Index (MFI) below 1.5) |
| 6H3: Vγ9Vδ2-TCR binding VHH, SEQ ID NO: 147 (protein, antibody sequence) VHH: EVQLVESGGGLVQAGGSLRLSCAVSGRPFSNYGMGWFRQAPGKEREFVAGITWSGGSTHYADLVKGRFTISRDNAKNTVHLQMNSLKPEDTAVYYCAAVFSGAETAYYPSTEYDYWGQGTQVTVSS | ++ (“++” indicates an MFI above 20) | ++ (“++” indicates an MFI above 20) | − (“−” indicates a Mean Fluorescence Index (MFI) below 1.5) | +/− (“+/−” indicates an MFI of between 1.5 and 4.5) |
| 6C1: Vγ9Vδ2-TCR binding VHH, SEQ ID NO: 146 (protein, antibody sequence) VHH: EVQLVESGGGLVQAGGSLRLSCAASGRPFSNYGMGWFRQAPGKKRESVAGISWSGGSTDYADSVKGRFTISRDNAKNTVYLQMNSLKPEDTAVYYCAAVFSGAETAYYPSDDYDYWGQGTQVTVSS | ++ (“++” indicates an MFI above 20) | ++ (“++” indicates an MFI above 20) | − (“−” indicates a Mean Fluorescence Index (MFI) below 1.5) | − (“−” indicates a Mean Fluorescence Index (MFI) below 1.5) |
| 6G3: Vγ9Vδ2-TCR binding VHH, SEQ ID NO: 148 (protein, antibody sequence) VHH: EVQLVESGGGLVQAGGSLRLSCAASGRPFNNYGMGWFRQAPGKEREFVAGISWSGGSTYYADSVKGRFTISRDNAKNTVYLQMNSLKPEDTAVYYCAAVFSGAETAQYPSYDYDYWGQGTQVTVSS | ++ (“++” indicates an MFI above 20) | ++ (“++” indicates an MFI above 20) | − (“−” indicates a Mean Fluorescence Index (MFI) below 1.5) | − (“−” indicates a Mean Fluorescence Index (MFI) below 1.5) |
| 5C7: Vγ9Vδ2-TCR binding VHH, SEQ ID NO: 153 (protein, antibody sequence) VHH: EVQLVESGGGLVQAGDSLRLSCAASGRTFSRYTMGWFRQAPGKEREFVAAISWSGGRTNFAGSVKGRFTISRDNAKNTVYLQMNSLKPEDTAVYYCAADWLPVPGRESYDYWGQGTQVTVSS | +/− (“+/−” indicates an MFI of between 1.5 and 4.5) | +/− (“+/−” indicates an MFI of between 1.5 and 4.5) | − (“−” indicates a Mean Fluorescence Index (MFI) below 1.5) | − (“−” indicates a Mean Fluorescence Index (MFI) below 1.5) |
| 6H1: Vγ9Vδ2-TCR binding VHH, SEQ ID NO: 140 (protein, antibody sequence) VHH: EVQLVESGGGLVQAGGSLRLSCAATGRTFSEYAMGWFRQAPGKEREFAAAISWTGSKTYYADSVKGRFTISRDNAKNTVYLQMNSLKPEDTAVYYCAASSDCSGPGCHTEEYDYWGQGTQVTVSS | ++ (“++” indicates an MFI above 20) | − (“−” indicates a Mean Fluorescence Index (MFI) below 1.5) | − (“−” indicates a Mean Fluorescence Index (MFI) below 1.5) | ++ (“++” indicates an MFI above 20) |
| 5G3: Vγ9Vδ2-TCR binding VHH, SEQ ID NO: 141 (protein, antibody sequence) VHH: EVQLVESGGGLVQAGGSLRLSCAASGRTFSSYAMGWFRQAPGKEREFVAAVSWSGGSTYYADSVKGRFTISRDNARNTVYLQMNSLNPEDTAVYYCAASQDCSGPGCYTNEYDSWGQGTQVTVSS | ++ (“++” indicates an MFI above 20) | − (“−” indicates a Mean Fluorescence Index (MFI) below 1.5) | − (“−” indicates a Mean Fluorescence Index (MFI) below 1.5) | ++ (“++” indicates an MFI above 20) |
